Among the targets are GST-Smad1 (UniProt Q15797); GST-Smad2 (full-length) (UniProt Q15796); GST-Smad3deltaMH1 (UniProt P84022).

Consider one substance from patent US20050136043.

Sequence of GST-Smad1 (Q15797 whole entry): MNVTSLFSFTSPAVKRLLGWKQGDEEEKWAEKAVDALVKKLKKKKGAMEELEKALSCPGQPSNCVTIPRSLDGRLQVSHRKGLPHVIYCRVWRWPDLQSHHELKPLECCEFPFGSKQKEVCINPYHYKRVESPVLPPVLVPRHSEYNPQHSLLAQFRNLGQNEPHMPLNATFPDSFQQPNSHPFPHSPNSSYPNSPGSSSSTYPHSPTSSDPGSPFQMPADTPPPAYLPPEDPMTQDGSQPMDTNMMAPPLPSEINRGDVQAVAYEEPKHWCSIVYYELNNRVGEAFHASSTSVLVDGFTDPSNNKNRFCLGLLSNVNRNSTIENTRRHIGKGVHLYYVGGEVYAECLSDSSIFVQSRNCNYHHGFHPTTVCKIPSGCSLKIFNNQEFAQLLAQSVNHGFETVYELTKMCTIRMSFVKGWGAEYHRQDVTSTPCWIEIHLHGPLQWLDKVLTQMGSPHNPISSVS
Sequence of GST-Smad2 (full-length) (Q15796 whole entry): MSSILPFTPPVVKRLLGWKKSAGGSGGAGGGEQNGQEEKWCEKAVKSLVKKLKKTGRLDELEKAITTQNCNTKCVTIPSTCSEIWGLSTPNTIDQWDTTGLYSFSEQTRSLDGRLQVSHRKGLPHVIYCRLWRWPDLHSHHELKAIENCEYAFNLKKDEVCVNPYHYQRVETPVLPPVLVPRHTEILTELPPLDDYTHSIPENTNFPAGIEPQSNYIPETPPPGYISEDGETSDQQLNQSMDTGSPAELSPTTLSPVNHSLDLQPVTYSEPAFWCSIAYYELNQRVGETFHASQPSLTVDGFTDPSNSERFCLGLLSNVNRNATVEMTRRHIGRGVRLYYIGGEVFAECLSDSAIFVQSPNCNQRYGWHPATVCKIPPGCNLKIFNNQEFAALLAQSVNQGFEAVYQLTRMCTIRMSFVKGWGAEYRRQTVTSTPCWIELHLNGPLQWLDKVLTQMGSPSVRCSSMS
Sequence of GST-Smad3deltaMH1 (P84022 137-425, stated change not applied): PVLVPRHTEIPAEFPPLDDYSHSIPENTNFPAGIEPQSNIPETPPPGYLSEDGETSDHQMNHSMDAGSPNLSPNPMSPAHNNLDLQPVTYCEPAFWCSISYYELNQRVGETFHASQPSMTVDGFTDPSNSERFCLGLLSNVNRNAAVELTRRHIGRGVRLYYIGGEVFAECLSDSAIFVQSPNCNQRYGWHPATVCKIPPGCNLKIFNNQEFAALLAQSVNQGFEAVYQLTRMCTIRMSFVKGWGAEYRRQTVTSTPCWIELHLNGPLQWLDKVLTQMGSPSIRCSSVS

As for “GST-TβR-I (GST fused to the cytoplasmic part, residues 148-503, of constitutively active TβR-I T204D, FLAG-tagged at the C-terminus)”, the “phosphorylation of substrate in in vitro kinase assay (32P, SDS-PAGE, phosphorimager)” value in the series with GST-Smad1 was “no phosphorylation of GST-Smad1 was observed”; in the series with GST-Smad2 (full-length), “Purified GST-TβR-I kinase efficiently phosphorylated itself, as well as the C-terminal part of Smad3 and full-length GST-Smad2 as exogenous substrates”; with GST-Smad3deltaMH1, “Purified GST-TβR-I kinase efficiently phosphorylated itself, as well as the C-terminal part of Smad3 and full-length GST-Smad2 as exogenous substrates”.
